Key:
HLA-DRB4 (DRB4*0101) = HLA-DRB4 (DRB4*0101) (human); assay: competition ELISA, tracer biotin-E2/E168
HLA-DR11 (DRB1*1101) = HLA-DR11 (DRB1*1101) (human); assay: competition ELISA, tracer biotin-HA 306-318
HLA-DR4 (DRB1*0401) = HLA-DR4 (DRB1*0401) (human); assay: competition ELISA, tracer biotin-HA 306-318
HLA-DRB5 (DRB5*0101) = HLA-DRB5 (DRB5*0101) (human); assay: competition ELISA, tracer biotin-HA 306-318
HLA-DR7 (DRB1*0701) = HLA-DR7 (DRB1*0701) (human); assay: competition ELISA, tracer biotin-YKL
HLA-DP402 (DPB1*0402) = target: T1, HLA-DP402 (DPB1*0402) (human, UniProt P20036 29-222, limits assumed); assay: competition ELISA, tracer biotin-Oxy 271-287
T1 construct: also called DP*0402

HLA-DP401 (DPB1*0401) = HLA-DP401 (DPB1*0401) (human, UniProt P20036 29-222, limits assumed); assay: competition ELISA, tracer biotin-Oxy 271-287
HLA-DR1 (DRB1*0101) = HLA-DR1 (DRB1*0101) (human); assay: competition ELISA, tracer biotin-HA 306-318
HLA-DR15 (DRB1*1501) = HLA-DR15 (DRB1*1501) (human); assay: competition ELISA, tracer biotin-A3 152-166
HLA-DR13 (DRB1*1301) = HLA-DR13 (DRB1*1301) (human); assay: competition ELISA, tracer biotin-B1 21-36
HLA-DRB3 (DRB3*0101) = HLA-DRB3 (DRB3*0101) (human); assay: competition ELISA, tracer biotin-LOL 191-210
HLA-DR3 (DRB1*0301) = HLA-DR3 (DRB1*0301) (human); assay: competition ELISA, tracer biotin-MT 2-16

| Binder | relative binding activity (HLA-DRB4 (DRB4*0101)) | relative binding activity (HLA-DR11 (DRB1*1101)) | relative binding activity (HLA-DR4 (DRB1*0401)) | relative binding activity (HLA-DRB5 (DRB5*0101)) | relative binding activity (HLA-DR7 (DRB1*0701)) | relative binding activity (HLA-DP402 (DPB1*0402)) | relative binding activity (HLA-DP401 (DPB1*0401)) | relative binding activity (HLA-DR1 (DRB1*0101)) | relative binding activity (HLA-DR15 (DRB1*1501)) | relative binding activity (HLA-DR13 (DRB1*1301)) | relative binding activity (HLA-DRB3 (DRB3*0101)) | relative binding activity (HLA-DR3 (DRB1*0301)) |
| --- | --- | --- | --- | --- | --- | --- | --- | --- | --- | --- | --- | --- |
| QTQRIRCRVPCNWKK (also called MDK9) [MDK 64-78] | 1160 IC50 ratio to reference peptide | 504 IC50 ratio to reference peptide | 558 IC50 ratio to reference peptide | 61 IC50 ratio to reference peptide | 2070 IC50 ratio to reference peptide | – | – | – | – | – | – | – |
| LTLLALLALTSAVAK (synthetic 15-mer of the human midkine precursor; also called MDK3; peptide 9-23) [MDK 9-23] | – | 0.3 IC50 ratio to reference peptide | 1 IC50 ratio to reference peptide | 2 IC50 ratio to reference peptide | 13 IC50 ratio to reference peptide | 29 IC50 ratio to reference peptide | 94 IC50 ratio to reference peptide | 0.2 IC50 ratio to reference peptide | 5 IC50 ratio to reference peptide | – | – | – |
| GTKVRQGTLKKARYN (also called MDK15) [MDK 99-113] | – | – | – | 215 IC50 ratio to reference peptide | – | – | – | 3000 IC50 ratio to reference peptide | – | 74 IC50 ratio to reference peptide | – | – |
| CKYKFENWGACDGGT (also called MDK13) [MDK 84-98] | – | – | 362 IC50 ratio to reference peptide | 292 IC50 ratio to reference peptide | – | 49 IC50 ratio to reference peptide | 52 IC50 ratio to reference peptide | – | – | – | – | – |
| AEWAWGPCTPSSKDC (also called MDK7) [MDK 38-52] | – | 923 IC50 ratio to reference peptide | 1860 IC50 ratio to reference peptide | – | – | 239 IC50 ratio to reference peptide | – | 1300 IC50 ratio to reference peptide | – | – | – | – |
| KDKVKKGGPGSECAE (also called MDK6) [MDK 25-39] | – | – | – | – | – | – | – | 1250 IC50 ratio to reference peptide | – | – | – | – |
| ENWGACDGGTGTKVR (also called MDK14) [MDK 89-103] | – | – | – | – | – | – | – | 1460 IC50 ratio to reference peptide | – | – | 2330 IC50 ratio to reference peptide | – |
| GTLKKARYNAQCQET (also called MDK16) [MDK 105-119] | – | 1010 IC50 ratio to reference peptide | 492 IC50 ratio to reference peptide | – | – | – | – | 97 IC50 ratio to reference peptide | – | – | – | – |
| MQHRGFLLLTLLALL (synthetic 15-mer of the human midkine precursor; also called peptide 1-15) [MDK 1-15] | 204 IC50 ratio to reference peptide | 7 IC50 ratio to reference peptide | – | 161 IC50 ratio to reference peptide | 49 IC50 ratio to reference peptide | 19 IC50 ratio to reference peptide | 20 IC50 ratio to reference peptide | 21 IC50 ratio to reference peptide | – | – | 267 IC50 ratio to reference peptide | – |
| RGFLLLTLLALLALT (synthetic 15-mer of the human midkine precursor; also called MDK2; peptide 4-18) [MDK 4-18] | 65 IC50 ratio to reference peptide | 94 IC50 ratio to reference peptide | – | 46 IC50 ratio to reference peptide | 20 IC50 ratio to reference peptide | 18 IC50 ratio to reference peptide | 6 IC50 ratio to reference peptide | 21 IC50 ratio to reference peptide | 19 IC50 ratio to reference peptide | – | 37 IC50 ratio to reference peptide | – |
| LLALTSAVAKKKDKV (synthetic 15-mer of the human midkine precursor; also called MDK4; peptide 14-28) [MDK 14-28] | – | 48 IC50 ratio to reference peptide | 401 IC50 ratio to reference peptide | 0.1 IC50 ratio to reference peptide | 590 IC50 ratio to reference peptide | – | – | 34 IC50 ratio to reference peptide | – | 45 IC50 ratio to reference peptide | – | – |
| ARYNAQCQETIRVTK (synthetic 15-mer of the human midkine precursor; also called MDK17) [MDK 110-124] | – | 69 IC50 ratio to reference peptide | 6 IC50 ratio to reference peptide | 15 IC50 ratio to reference peptide | – | – | – | 10 IC50 ratio to reference peptide | – | – | – | – |
| ETIRVTKPCTPKTKA (also called MDK18) [MDK 119-133] | – | 763 IC50 ratio to reference peptide | 1290 IC50 ratio to reference peptide | 26 IC50 ratio to reference peptide | 819 IC50 ratio to reference peptide | – | – | 2 IC50 ratio to reference peptide | – | – | – | – |
| KEFGADCKYKFENWG (also called MDK12) [MDK 78-92] | – | 800 IC50 ratio to reference peptide | 457 IC50 ratio to reference peptide | 114 IC50 ratio to reference peptide | – | 378 IC50 ratio to reference peptide | 167 IC50 ratio to reference peptide | – | – | – | 226 IC50 ratio to reference peptide | 1 IC50 ratio to reference peptide |
| CNWKKEFGADCKYKF (also called MDK11) [MDK 74-88] | – | 1230 IC50 ratio to reference peptide | – | 714 IC50 ratio to reference peptide | – | – | – | 333 IC50 ratio to reference peptide | – | – | 877 IC50 ratio to reference peptide | 2 IC50 ratio to reference peptide |
| CRVPCNWKKEFGADC (also called MDK10) [MDK 70-84] | – | – | 1560 IC50 ratio to reference peptide | – | – | – | 7 IC50 ratio to reference peptide | 53 IC50 ratio to reference peptide | – | – | 621 IC50 ratio to reference peptide | – |

Source: patent US20110159022A1 (published 2011)
